The values below come from US20250281611A1 (BIOSCEPTRE AUST, published 2025).

T1: CD19 (UniProt P15391 20-556, limits assumed)
T1 construct: whole, on cells; also called CD19 on JeKo-1
T1 sequence (looked up): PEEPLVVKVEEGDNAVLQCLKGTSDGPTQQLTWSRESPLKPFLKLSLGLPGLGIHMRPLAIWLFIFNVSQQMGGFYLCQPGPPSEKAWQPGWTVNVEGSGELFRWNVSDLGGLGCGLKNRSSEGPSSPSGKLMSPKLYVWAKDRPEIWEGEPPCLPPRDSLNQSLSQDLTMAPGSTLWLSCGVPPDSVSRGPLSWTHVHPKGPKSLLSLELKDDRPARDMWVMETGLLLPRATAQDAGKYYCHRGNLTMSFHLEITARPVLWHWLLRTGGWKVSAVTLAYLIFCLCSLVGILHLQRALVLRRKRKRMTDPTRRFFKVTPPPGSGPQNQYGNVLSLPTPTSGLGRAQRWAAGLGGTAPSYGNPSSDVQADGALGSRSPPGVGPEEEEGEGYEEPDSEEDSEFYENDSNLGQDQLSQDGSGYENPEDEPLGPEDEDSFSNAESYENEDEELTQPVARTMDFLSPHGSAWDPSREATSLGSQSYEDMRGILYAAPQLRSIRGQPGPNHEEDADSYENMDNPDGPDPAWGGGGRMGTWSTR

T2: CD37 (UniProt P11049 1-281, limits assumed)
T2 construct: whole, on cells
T2 sequence (looked up): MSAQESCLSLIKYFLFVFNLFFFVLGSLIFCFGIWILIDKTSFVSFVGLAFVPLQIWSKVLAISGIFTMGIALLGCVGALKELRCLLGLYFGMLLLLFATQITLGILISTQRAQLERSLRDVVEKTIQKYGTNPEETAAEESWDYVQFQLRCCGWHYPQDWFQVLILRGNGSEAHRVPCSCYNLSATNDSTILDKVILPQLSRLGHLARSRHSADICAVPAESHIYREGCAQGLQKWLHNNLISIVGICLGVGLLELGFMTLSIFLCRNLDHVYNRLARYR

B1: CD19 BRIDGE variant B30 (Fab)
heavy: EVQLVESGGGLVKPGGSLKLSCAASGYTFTSYVMHWVRQAPGKGLEWIGYINPYNDGTKYNEKFQGRVTISSDKSISTAYMELSSLRSEDTAMYYCARGTYYYGTRVFDYWGQGTLVTVSSASTKGPSVFPLAPSSKSTSGGTAALGCLVKDYFPEPVTVSWNSGALTSGVHTFPAVLQSSGLYSLSSVVTVPSSSLGTQTYICNVNHKPSNTKVDKKVEPKSCHHHHHH
light: DFPGHNYTTRNILPGLNITSTFHKTSGSGKGGGGSEPKSSDKTHTGSDIVMTQSPATLSLSPGERATLSCRSSKSLQNVNGNTYLYWFQQKPGQSPQLLIYRMSNLNSGVPDRFSGSGSGTEFTLTISSLEPEDFAVYYCMQHLEYPITFGAGTKLEIKRTVAAPSVFIFPPSDEQLKSGTASVVCLLNNFYPREAKVQWKVDNALQSGNSQESVTEQDSKDSTYSLSSTLTLSKADYEKHKVYACEVTHQGLSSPVTKSFNRGEC
B2: CD19 BRIDGE variant B34 (Fab)
heavy: B1 heavy
light: DFPGHNYTTRNILPGLNITSTFHKTSGSGKEPKSSDKTHTGGGGSDIVMTQSPATLSLSPGERATLSCRSSKSLQNVNGNTYLYWFQQKPGQSPQLLIYRMSNLNSGVPDRFSGSGSGTEFTLTISSLEPEDFAVYYCMQHLEYPITFGAGTKLEIKRTVAAPSVFIFPPSDEQLKSGTASVVCLLNNFYPREAKVQWKVDNALQSGNSQESVTEQDSKDSTYSLSSTLTLSKADYEKHKVYACEVTHQGLSSPVTKSFNRGEC
B3: CD19 BRIDGE variant B36 (Fab)
heavy: B1 heavy
light: DFPGHNYTTRNILPGLNITSTFHKTSGSGKGGGGSEPKSSDKTHTGGGGSDIVMTQSPATLSLSPGERATLSCRSSKSLQNVNGNTYLYWFQQKPGQSPQLLIYRMSNLNSGVPDRFSGSGSGTEFTLTISSLEPEDFAVYYCMQHLEYPITFGAGTKLEIKRTVAAPSVFIFPPSDEQLKSGTASVVCLLNNFYPREAKVQWKVDNALQSGNSQESVTEQDSKDSTYSLSSTLTLSKADYEKHKVYACEVTHQGLSSPVTKSFNRGEC
B4: CD19 BRIDGE variant B33 (Fab)
heavy: B1 heavy
light: DFPGHNYTTRNILPGLNITSGGGGSEPKSSDKTHTGGGGSDIVMTQSPATLSLSPGERATLSCRSSKSLQNVNGNTYLYWFQQKPGQSPQLLIYRMSNLNSGVPDRFSGSGSGTEFTLTISSLEPEDFAVYYCMQHLEYPITFGAGTKLEIKRTVAAPSVFIFPPSDEQLKSGTASVVCLLNNFYPREAKVQWKVDNALQSGNSQESVTEQDSKDSTYSLSSTLTLSKADYEKHKVYACEVTHQGLSSPVTKSFNRGEC
B5: CD19 BRIDGE variant B31 (Fab)
heavy: B1 heavy
light: DFPGHNYTTRNILPGLNITSEPKSSDKTHTGGGGSDIVMTQSPATLSLSPGERATLSCRSSKSLQNVNGNTYLYWFQQKPGQSPQLLIYRMSNLNSGVPDRFSGSGSGTEFTLTISSLEPEDFAVYYCMQHLEYPITFGAGTKLEIKRTVAAPSVFIFPPSDEQLKSGTASVVCLLNNFYPREAKVQWKVDNALQSGNSQESVTEQDSKDSTYSLSSTLTLSKADYEKHKVYACEVTHQGLSSPVTKSFNRGEC
B6: CD19 BRIDGE variant B32 (Fab)
heavy: B1 heavy
light: DFPGHNYTTRNILPGLNITSGSEPKSSDKTHTGGGGSDIVMTQSPATLSLSPGERATLSCRSSKSLQNVNGNTYLYWFQQKPGQSPQLLIYRMSNLNSGVPDRFSGSGSGTEFTLTISSLEPEDFAVYYCMQHLEYPITFGAGTKLEIKRTVAAPSVFIFPPSDEQLKSGTASVVCLLNNFYPREAKVQWKVDNALQSGNSQESVTEQDSKDSTYSLSSTLTLSKADYEKHKVYACEVTHQGLSSPVTKSFNRGEC
B7: CD19 BRIDGE variant B35 (Fab)
heavy: B1 heavy
light: DFPGHNYTTRNILPGLNITSTFHKTSGSGKGSEPKSSDKTHTGGGGSDIVMTQSPATLSLSPGERATLSCRSSKSLQNVNGNTYLYWFQQKPGQSPQLLIYRMSNLNSGVPDRFSGSGSGTEFTLTISSLEPEDFAVYYCMQHLEYPITFGAGTKLEIKRTVAAPSVFIFPPSDEQLKSGTASVVCLLNNFYPREAKVQWKVDNALQSGNSQESVTEQDSKDSTYSLSSTLTLSKADYEKHKVYACEVTHQGLSSPVTKSFNRGEC
B8: CD37 bridging molecule (E200 + CD37 binder, Otlertuzumab, B026) (Fab, V domains shown)
VH: EVQLVQSGAEVKKPGESLKISCKGSGYSFTGYNMNWVRQMPGKGLEWMGNIDPYYGGTTYNRKFKGQVTISADKSISTAYLQWSSLKASDTAMYYCARSVGPFDSWGQGTLVTVSS
VL: EIVLTQSPATLSLSPGERATLSCRASENVYSYLAWYQQKPGQAPRLLIYFAKTLAEGIPARFSGSGSGTDFTLTISSLEPEDFAVYYCQHHSDNPWTFGQGTKVEIKR

In one assay the target is T1, CD19. As to the kind of experiment: flow cytometry, JeKo-1 cells, bridge at saturating conc., BIL03s-AF647 detection. On the procedure:
(§1) JeKo-1 cells were incubated with different CD19 BRiDGE variants at saturating concentrations. […] The MFI intensity correlates with the number of secondary bound antibodies bound to the CD19 BRiDGE variants that are only detected if they are bound to the JeKo-1 cells. MFI: median fluorescence intensity. BLitz: Bio-Layer interferometry (BLI) technology using HIS-tag identification tips. […] The higher the MFIR, the stronger the binding.
B1: the “MFI Bil03 AF647” value came out at 7.48.

With B2, the “MFI Bil03 AF647” value stood at 7.04.

For the molecule B3, the “MFI Bil03 AF647” value worked out at 9.15.

As for B4, the “MFI Bil03 AF647” value was 7.12.

Regarding B5, the “MFI Bil03 AF647” value is 5.83.

As for B6, the “MFI Bil03 AF647” value amounted to 8.99.

Turning to B7, the “MFI Bil03 AF647” value was found to be 9.49.

A further assay concerns the target T2, CD37. As to the kind of experiment: flow cytometry, JeKo-1 cells. For orientation: A flow cytometer gives signals particle by particle.
As to B8, the binding result is “binds”.

The target of a further assay is T3, nfP2X7 CAR 1.
T3 construct: CAR-positive cells gated by the co-expressed EGFR marker; also called nfP2X7 targeted CAR; nfP2X7 CAR on EGFR+ T cells
As to the kind of experiment: flow cytometry, nfP2X7 CAR 1 T cells (EGFR+ gate), anti-His-FITC detection.
Consider B1, for which the “MFI HisTag FITC in EGFR+ Population” value was 2.12.

Take B2: the “MFI HisTag FITC in EGFR+ Population” value is 2.41.

For the molecule B3, the “MFI HisTag FITC in EGFR+ Population” value worked out at 2.41.

As for B4, the “MFI HisTag FITC in EGFR+ Population” value came out at 2.39.

Regarding B5, the “MFI HisTag FITC in EGFR+ Population” value is 2.67.

For the molecule B6, the “MFI HisTag FITC in EGFR+ Population” value is 2.61.

On to B7, for which the “MFI HisTag FITC in EGFR+ Population” value amounted to 2.51.

Another assay concerns the target T3, nfP2X7 CAR 1. In words: flow cytometry, anti-His-FITC, MFI on EGFR+ (CAR+) T cells over background 0.44. The method, boiled down: (§2)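 CAR T cells incubated with BRiDGE variants at saturating concentrations; bound BRiDGE detected with anti-His-FITC by flow cytometry. EGFR marks CAR expression. Value is median fluorescence intensity on EGFR+ (CAR+) cells divided by that on EGFR− (CAR−) cells.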
With B1, the “HisTag MFI Ratio (background 0.44)” value is 4.8.

B2: the “HisTag MFI Ratio (background 0.44)” value is 5.5.

In the case of B3, the “HisTag MFI Ratio (background 0.44)” value was determined as 5.5.

For the molecule B4, the “HisTag MFI Ratio (background 0.44)” value was 5.4.

In the case of B5, the “HisTag MFI Ratio (background 0.44)” value stood at 6.1.

As for B6, the “HisTag MFI Ratio (background 0.44)” value was determined as 5.9.

On to B7, for which the “HisTag MFI Ratio (background 0.44)” value is 5.7.

For the next assay, the target named is T1, CD19. In words: flow cytometry, JeKo-1 cells, bridge at saturating conc., anti-His-FITC detection. As for the experimental part:
as §1
As for B1, the “MFI HisTag FITC” value was 2.35.

On to B2, for which the “MFI HisTag FITC” value worked out at 2.19.

Turning to B3, the “MFI HisTag FITC” value was determined as 2.29.

Consider B4, for which the “MFI HisTag FITC” value came to 2.25.

Turning to B5, the “MFI HisTag FITC” value amounted to 2.13.

Consider B6, for which the “MFI HisTag FITC” value came to 2.3.

Consider B7, for which the “MFI HisTag FITC” value was 2.31.

The target of a further assay is T1, CD19. As to the kind of experiment: flow cytometry, JeKo-1 cells, BIL03s-AF647 detection, MFI over no-bridge control. On the procedure:
as §1
As to B1, the “MFIR BIL03 AF647” value was determined as 16.3.

As to B2, the “MFIR BIL03 AF647” value was 15.3.

Turning to B3, the “MFIR BIL03 AF647” value was determined as 19.9.

Regarding B4, the “MFIR BIL03 AF647” value is 15.5.

Turning to B5, the “MFIR BIL03 AF647” value worked out at 12.7.

Consider B6, for which the “MFIR BIL03 AF647” value was 19.5.

In the case of B7, the “MFIR BIL03 AF647” value stood at 20.6.

A further assay concerns the target T3, nfP2X7 CAR 1. In words: flow cytometry, anti-His-FITC, MFI on EGFR+ (CAR+) over EGFR- (CAR-) T cells. The method, boiled down:
as §2
On to B1, for which the “HisTag MFI Ratio of EGFR+/EGFR-” value was 4.3.

On to B2, for which the “HisTag MFI Ratio of EGFR+/EGFR-” value came to 4.3.

On to B3, for which the “HisTag MFI Ratio of EGFR+/EGFR-” value was 4.2.

Regarding B4, the “HisTag MFI Ratio of EGFR+/EGFR-” value came to 3.9.

Consider B5, for which the “HisTag MFI Ratio of EGFR+/EGFR-” value was 3.9.

Take B6: the “HisTag MFI Ratio of EGFR+/EGFR-” value stood at 4.

Turning to B7, the “HisTag MFI Ratio of EGFR+/EGFR-” value stood at 4.1.

The next assay concerns the target T1, CD19. In words: flow cytometry, JeKo-1 cells, anti-His-FITC detection, MFI over no-bridge control. As for the experimental part:
as §1
As for B1, the “MFIR HisTag FITC” value was determined as 3.05.

Regarding B2, the “MFIR HisTag FITC” value worked out at 2.84.

On to B3, for which the “MFIR HisTag FITC” value is 2.97.

As to B4, the “MFIR HisTag FITC” value was determined as 2.92.

In the case of B5, the “MFIR HisTag FITC” value stood at 2.77.

As for B6, the “MFIR HisTag FITC” value was determined as 2.99.

Consider B7, for which the “MFIR HisTag FITC” value was determined as 3.
